Laboratory results: patent US20230174630A1 (UNIVERSITY OF BRITISH COLUMBIA, published 2023)
Blank lines part the entries; values can stand above or below the binder they belong to.

Biological target: T1, endogenous wild type TDP-43 of HEK293 cells (human, UniProt Q13148 1-414)
T1 construct: whole, on cells; Intracellular endogenous protein: nuclear in unstressed cells; also called endogenous, nuclear WT TDP-43; normal nuclear TDP-43
Experiment: co-localization immunocytochemistry, intrabody expressed in HEK293 cells

T1 sequence (Q13148 whole entry): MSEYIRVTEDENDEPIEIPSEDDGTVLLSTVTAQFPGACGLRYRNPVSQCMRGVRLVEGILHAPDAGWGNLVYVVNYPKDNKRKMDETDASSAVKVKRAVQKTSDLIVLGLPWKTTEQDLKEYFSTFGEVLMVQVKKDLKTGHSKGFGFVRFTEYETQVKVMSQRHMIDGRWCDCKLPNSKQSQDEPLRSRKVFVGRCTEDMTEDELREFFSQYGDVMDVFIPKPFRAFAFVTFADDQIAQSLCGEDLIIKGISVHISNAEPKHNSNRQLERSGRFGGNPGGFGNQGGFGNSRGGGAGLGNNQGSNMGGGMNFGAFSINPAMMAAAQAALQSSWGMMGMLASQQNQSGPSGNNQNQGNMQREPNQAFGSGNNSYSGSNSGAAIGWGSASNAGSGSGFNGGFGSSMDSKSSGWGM

binding result: no binding
B1: YPTL-14H1-14K2 (scFv)
scFv: MQEQLEESGGDLVKPEGSLTLTCTASGFSFSSNYVMCWVRQAPGKGLEWVACIWFAGIVDTTYYATWAKGRFTISKTSSTTVTLQMTSLTAADTATYFCARNPVGSVNLWGQGTLVTVSSGGGGSGGGGSGGGGSVMTQTPSSKSVPVGGSVTINCQASESVYSNNRLSWYQQKPGQPPKLLIYYASTLESGVPSRFKGSGFGTHFTLTISGAQCDDAATYYCAGWRGARTDGVDFGGGTEVVVKDYKDDDDKRWRKSHSSSYTPLSGSTYPEGRH

binding result: no binding
B2: YPTL-2F7 (scFv)
scFv: MDVKLVESGGGLVKLGGSLKLSCAASGFTFSSYYMSWVRQTPEKRLELVATINSNGGSTYYPDTVKGRITISRDNAKNTLQLQMSSLRSEDTALYYCVRQNYEGAYWGQGTLVTVSAGGGGSGGGGSGGGGSDVLMTQTPLSLPVTLGDQASISCRSSQSIVHSNGNTYLEWYLQKPGQSPKLLIYKVSNRFSGVPDRFSGSGSGTDFTLKISRVEAEDLGVYYCFQSSHVPWTFGGGTKLEIKDYKDDDDKRWRKSHSSSYTPLSGSTYPEGRH

binding result: no binding
B3: MYCL20H-14H1-14K2 (scFv)
scFv: MAIVMTQTPSSKSVPVGGSVTINCQASESVYSNNRLSWYQQKPGQPPKLLIYYASTLESGVPSRFKGSGFGTHFTLTISGAQCDDAATYYCAGWRGARTDGVDFGGGTEVVVKGSTGGGGSGKPGSGEGGGGSQEQLEESGGDLVKPEGSLTLTCTASGFSFSSNYVMCWVRQAPGKGLEWVACIWFAGIVDTTYYATWAKGRFTISKTSSTTVTLQMTSLTAADTATYFCARNPVGSVNLWGQGTLVTVSSGSGEQKLISEEDL
notes: Intrabody: VL-20 aa linker-VH-GSG-MYC tag
